Test results taken from patent US20160159885A1.

Assays:
pseudolysin = pseudolysin (UniProt P14756); test: cell-based or functional assay
[1] = target: thermolysin (Bacillus thermoproteolyticus) (UniProt P00800); test: cell-based or functional assay
Chain of UniProt P00800 (P00800 233-548 limits assumed): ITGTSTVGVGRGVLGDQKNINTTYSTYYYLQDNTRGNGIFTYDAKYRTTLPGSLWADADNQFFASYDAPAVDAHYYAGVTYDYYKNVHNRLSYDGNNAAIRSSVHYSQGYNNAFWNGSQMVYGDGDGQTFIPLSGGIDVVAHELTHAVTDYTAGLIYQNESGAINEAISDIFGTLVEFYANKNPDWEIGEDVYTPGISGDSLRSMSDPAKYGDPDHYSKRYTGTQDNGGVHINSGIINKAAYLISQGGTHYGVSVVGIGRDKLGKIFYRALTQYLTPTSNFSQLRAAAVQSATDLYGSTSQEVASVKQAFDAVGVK

Chain of UniProt P14756 (P14756 198-498 limits assumed): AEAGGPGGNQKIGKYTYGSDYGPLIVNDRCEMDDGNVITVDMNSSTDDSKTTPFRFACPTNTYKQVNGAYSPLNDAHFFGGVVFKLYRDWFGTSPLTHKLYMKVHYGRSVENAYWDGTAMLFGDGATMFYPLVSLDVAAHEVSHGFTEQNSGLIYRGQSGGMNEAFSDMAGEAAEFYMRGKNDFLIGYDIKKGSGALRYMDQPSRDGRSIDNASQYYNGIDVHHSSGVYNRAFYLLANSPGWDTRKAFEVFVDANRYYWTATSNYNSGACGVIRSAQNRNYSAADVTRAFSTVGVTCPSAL

Question: Which IC50 wt PLN; column Pos35 InA (pseudolysin) does the source give for “wtIMPIα (wild-type insect metalloproteinase inhibitor IMPIα) (from UniProt P82176 20-88)” here?
Answer: 21.8 nM

Question: What about the IC50 wt PLN; column Pos35 InF (pseudolysin) of the same substance?
Answer: 21.9 nM

Question: And the IC50 wt PLN; column Pos35 InL (pseudolysin)?
Answer: 21.9 nM

Question: What about the IC50 wt PLN; column Pos35 InM (pseudolysin) of the same substance?
Answer: 21.9 nM

Question: What about the IC50 wt PLN; column Pos35 InV (pseudolysin) of the same substance?
Answer: 22.2 nM

Question: What about the IC50 wt PLN; column Pos35 InW (pseudolysin) of the same substance?
Answer: 22.1 nM

Question: And the IC50 wt PLN; column Pos35 InY (pseudolysin)?
Answer: 21.9 nM

Question: And the IC50 wt PLN; column Pos36 InA (pseudolysin)?
Answer: 22 nM

Question: And the IC50 wt PLN; column Pos36 InD (pseudolysin)?
Answer: 20.9 nM

Question: What about the IC50 wt PLN; column Pos36 InE (pseudolysin) of the same substance?
Answer: 21.6 nM

Question: And the IC50 wt PLN; column Pos36 InF (pseudolysin)?
Answer: 22.3 nM

Question: And the IC50 wt PLN; column Pos36 InG (pseudolysin)?
Answer: 21.6 nM

Question: What about the IC50 wt PLN; column Pos36 InH (pseudolysin) of the same substance?
Answer: 22 nM

Question: What about the IC50 wt PLN; column Pos36 InK (pseudolysin) of the same substance?
Answer: 22 nM

Question: What about the IC50 wt PLN; column Pos36 InM (pseudolysin) of the same substance?
Answer: 22 nM

Question: What about the IC50 wt PLN; column Pos36 InQ (pseudolysin) of the same substance?
Answer: 21.9 nM

Question: What about the IC50 wt PLN; column Pos36 InR (pseudolysin) of the same substance?
Answer: 22.3 nM

Question: What about the IC50 wt PLN; column Pos36 InT (pseudolysin) of the same substance?
Answer: 21.9 nM

Question: And the IC50 wt PLN; column Pos36 InV (pseudolysin)?
Answer: 22.1 nM

Question: And the IC50 wt PLN; column Pos36 InW (pseudolysin)?
Answer: 22.1 nM

Question: What about the IC50 wt PLN; column Pos36 InY (pseudolysin) of the same substance?
Answer: 22.2 nM

Question: What about the IC50 wt PLN; column Pos37 NnA (pseudolysin) of the same substance?
Answer: 21.9 nM

Question: What about the IC50 wt PLN; column Pos37 NnC (pseudolysin) of the same substance?
Answer: 20.7 nM

Question: What about the IC50 wt PLN; column Pos37 NnD (pseudolysin) of the same substance?
Answer: 22.6 nM

Question: And the IC50 wt PLN; column Pos37 NnE (pseudolysin)?
Answer: 21.9 nM

Question: What about the IC50 wt PLN; column Pos37 NnG (pseudolysin) of the same substance?
Answer: 21.8 nM

Question: And the IC50 wt PLN; column Pos37 NnH (pseudolysin)?
Answer: 21.2 nM

Question: What about the IC50 wt PLN; column Pos37 NnL (pseudolysin) of the same substance?
Answer: 20.8 nM

Question: What about the IC50 wt PLN; column Pos37 NnM (pseudolysin) of the same substance?
Answer: 30.8 nM

Question: And the IC50 wt PLN; column Pos37 NnP (pseudolysin)?
Answer: 20.8 nM

Question: What about the IC50 wt PLN; column Pos37 NnQ (pseudolysin) of the same substance?
Answer: 22.2 nM

Question: And the IC50 wt PLN; column Pos37 NnS (pseudolysin)?
Answer: 21.5 nM

Question: And the IC50 wt PLN; column Pos37 NnV (pseudolysin)?
Answer: 21.2 nM

Question: And the IC50 wt PLN; column Pos37 NnW (pseudolysin)?
Answer: 21.5 nM

Question: What about the IC50 wt PLN; column Pos37 NnY (pseudolysin) of the same substance?
Answer: 21.5 nM

Question: What about the IC50 wt PLN; column Pos38 InF (pseudolysin) of the same substance?
Answer: 21.1 nM

Question: What about the IC50 wt PLN; column Pos38 InG (pseudolysin) of the same substance?
Answer: 22.8 nM

Question: And the IC50 wt PLN; column Pos38 InH (pseudolysin)?
Answer: 23.1 nM

Question: And the IC50 wt PLN; column Pos38 InL (pseudolysin)?
Answer: 21.7 nM

Question: What about the IC50 wt PLN; column Pos38 InM (pseudolysin) of the same substance?
Answer: 21.4 nM

Question: What about the IC50 wt PLN; column Pos38 InQ (pseudolysin) of the same substance?
Answer: 22.2 nM

Question: What about the IC50 wt PLN; column Pos38 InV (pseudolysin) of the same substance?
Answer: 21.5 nM

Question: What about the IC50 wt PLN; column Pos38 InW (pseudolysin) of the same substance?
Answer: 21.1 nM

Question: What about the IC50 wt PLN; column Pos38 InY (pseudolysin) of the same substance?
Answer: 21.1 nM

Question: And the IC50 wt PLN; column Pos39 RnA (pseudolysin)?
Answer: 22.1 nM

Question: What about the IC50 wt PLN; column Pos39 RnF (pseudolysin) of the same substance?
Answer: 20.5 nM

Question: What about the IC50 wt PLN; column Pos39 RnG (pseudolysin) of the same substance?
Answer: 20.3 nM

Question: What about the IC50 wt PLN; column Pos39 RnI (pseudolysin) of the same substance?
Answer: 21.2 nM

Question: And the IC50 wt PLN; column Pos39 RnK (pseudolysin)?
Answer: 22 nM

Question: What about the IC50 wt PLN; column Pos39 RnL (pseudolysin) of the same substance?
Answer: 20.1 nM

Question: And the IC50 wt PLN; column Pos39 RnM (pseudolysin)?
Answer: 22.1 nM

Question: What about the IC50 wt PLN; column Pos39 RnQ (pseudolysin) of the same substance?
Answer: 22.1 nM

Question: What about the IC50 wt PLN; column Pos39 RnT (pseudolysin) of the same substance?
Answer: 21.9 nM

Question: And the IC50 wt PLN; column Pos39 RnV (pseudolysin)?
Answer: 21.8 nM

Question: What about the IC50 wt PLN; column Pos39 RnW (pseudolysin) of the same substance?
Answer: 19.9 nM

Question: And the IC50 wt PLN; column Pos39 RnY (pseudolysin)?
Answer: 22.5 nM

Question: What about the IC50 wt PLN; wt (avg), Pos35 block (pseudolysin) of the same substance?
Answer: 22 nM

Question: What about the IC50 wt PLN; wt (avg), Pos36 block (pseudolysin) of the same substance?
Answer: 21.9 nM

Question: And the IC50 wt PLN; wt (avg), Pos37 block (pseudolysin)?
Answer: 22.2 nM

Question: What about the IC50 wt PLN; wt (avg), Pos38 block (pseudolysin) of the same substance?
Answer: 21.8 nM

Question: What about the IC50 wt PLN; wt (avg), Pos39 block (pseudolysin) of the same substance?
Answer: 21.4 nM

Question: And the IC50 wt TLN; column Pos35 InA [1]?
Answer: 12.6 nM

Question: And the IC50 wt TLN; column Pos35 InF [1]?
Answer: 12.6 nM

Question: And the IC50 wt TLN; column Pos35 InL [1]?
Answer: 12.6 nM

Question: And the IC50 wt TLN; column Pos35 InM [1]?
Answer: 12.6 nM

Question: What about the IC50 wt TLN; column Pos35 InV [1] of the same substance?
Answer: 12.6 nM

Question: What about the IC50 wt TLN; column Pos35 InW [1] of the same substance?
Answer: 12.6 nM

Question: And the IC50 wt TLN; column Pos35 InY [1]?
Answer: 12.6 nM

Question: And the IC50 wt TLN; column Pos36 InA [1]?
Answer: 12.4 nM

Question: What about the IC50 wt TLN; column Pos36 InD [1] of the same substance?
Answer: 12.5 nM

Question: And the IC50 wt TLN; column Pos36 InE [1]?
Answer: 12.5 nM

Question: And the IC50 wt TLN; column Pos36 InF [1]?
Answer: 12.6 nM

Question: What about the IC50 wt TLN; column Pos36 InG [1] of the same substance?
Answer: 12.6 nM

Question: What about the IC50 wt TLN; column Pos36 InH [1] of the same substance?
Answer: 12.4 nM

Question: What about the IC50 wt TLN; column Pos36 InK [1] of the same substance?
Answer: 12.5 nM

Question: What about the IC50 wt TLN; column Pos36 InM [1] of the same substance?
Answer: 12.4 nM

Question: And the IC50 wt TLN; column Pos36 InQ [1]?
Answer: 12.6 nM

Question: What about the IC50 wt TLN; column Pos36 InR [1] of the same substance?
Answer: 12.6 nM

Question: And the IC50 wt TLN; column Pos36 InT [1]?
Answer: 12.4 nM

Question: What about the IC50 wt TLN; column Pos36 InV [1] of the same substance?
Answer: 12.6 nM

Question: What about the IC50 wt TLN; column Pos36 InW [1] of the same substance?
Answer: 12.5 nM

Question: And the IC50 wt TLN; column Pos36 InY [1]?
Answer: 12.6 nM

Question: And the IC50 wt TLN; column Pos37 NnA [1]?
Answer: 12.6 nM

Question: What about the IC50 wt TLN; column Pos37 NnC [1] of the same substance?
Answer: 12.7 nM

Question: What about the IC50 wt TLN; column Pos37 NnD [1] of the same substance?
Answer: 12.1 nM

Question: What about the IC50 wt TLN; column Pos37 NnE [1] of the same substance?
Answer: 12.6 nM

Question: And the IC50 wt TLN; column Pos37 NnG [1]?
Answer: 12.6 nM

Question: What about the IC50 wt TLN; column Pos37 NnH [1] of the same substance?
Answer: 12.8 nM

Question: And the IC50 wt TLN; column Pos37 NnL [1]?
Answer: 11.1 nM

Question: And the IC50 wt TLN; column Pos37 NnM [1]?
Answer: 11.7 nM

Question: What about the IC50 wt TLN; column Pos37 NnP [1] of the same substance?
Answer: 12 nM

Question: And the IC50 wt TLN; column Pos37 NnQ [1]?
Answer: 12.6 nM

Question: And the IC50 wt TLN; column Pos37 NnS [1]?
Answer: 12.5 nM

Question: And the IC50 wt TLN; column Pos37 NnV [1]?
Answer: 12.7 nM

Question: What about the IC50 wt TLN; column Pos37 NnW [1] of the same substance?
Answer: 12.7 nM

Question: And the IC50 wt TLN; column Pos37 NnY [1]?
Answer: 12.5 nM

Question: What about the IC50 wt TLN; column Pos38 InF [1] of the same substance?
Answer: 12.6 nM

Question: What about the IC50 wt TLN; column Pos38 InG [1] of the same substance?
Answer: 12.5 nM

Question: And the IC50 wt TLN; column Pos38 InH [1]?
Answer: 12.5 nM

Question: And the IC50 wt TLN; column Pos38 InL [1]?
Answer: 12.6 nM

Question: What about the IC50 wt TLN; column Pos38 InM [1] of the same substance?
Answer: 12.5 nM

Question: And the IC50 wt TLN; column Pos38 InQ [1]?
Answer: 12.6 nM

Question: And the IC50 wt TLN; column Pos38 InV [1]?
Answer: 12.6 nM

Question: What about the IC50 wt TLN; column Pos38 InW [1] of the same substance?
Answer: 12.4 nM

Question: What about the IC50 wt TLN; column Pos38 InY [1] of the same substance?
Answer: 12.6 nM

Question: And the IC50 wt TLN; column Pos39 RnA [1]?
Answer: 12.5 nM

Question: What about the IC50 wt TLN; column Pos39 RnF [1] of the same substance?
Answer: 12.5 nM

Question: What about the IC50 wt TLN; column Pos39 RnG [1] of the same substance?
Answer: 12.7 nM

Question: And the IC50 wt TLN; column Pos39 RnI [1]?
Answer: 12.5 nM

Question: And the IC50 wt TLN; column Pos39 RnK [1]?
Answer: 12.5 nM

Question: What about the IC50 wt TLN; column Pos39 RnL [1] of the same substance?
Answer: 12.4 nM

Question: What about the IC50 wt TLN; column Pos39 RnM [1] of the same substance?
Answer: 12.6 nM

Question: What about the IC50 wt TLN; column Pos39 RnQ [1] of the same substance?
Answer: 12.6 nM

Question: What about the IC50 wt TLN; column Pos39 RnV [1] of the same substance?
Answer: 12.5 nM

Question: And the IC50 wt TLN; column Pos39 RnW [1]?
Answer: 12.4 nM

Question: What about the IC50 wt TLN; wt (avg), Pos35 block [1] of the same substance?
Answer: 12.6 nM

Question: And the IC50 wt TLN; wt (avg), Pos36 block [1]?
Answer: 12.5 nM

Question: And the IC50 wt TLN; wt (avg), Pos37 block [1]?
Answer: 12.4 nM

Question: What about the IC50 wt TLN; wt (avg), Pos38 block [1] of the same substance?
Answer: 12.5 nM

Question: And the IC50 wt TLN; wt (avg), Pos39 block [1]?
Answer: 12.5 nM
